{"source": "the DeepSol protein solubility set"}
{"test": "soluble on expression in E. coli; label from the status in PepcDB or PDB records"}
{"sequence": "KYPFLREAGSSFKDRDVTKMSDLIATWDGQDIKGPALIGVPLSKSSISHSGASFAPGTIRQALKHSSAYSAELGEHVVSELLYDLGDIDIHVTDIVKSHHHIFQTMHALLSDHPDWVPLILGGDNSISYSTIKAIAQTKGTTAVIQFDAHHDVRNTEDGGPTNGTPFRRLLDEEIIEGQHLIQLGIREFSNSQAYEAYAKKHNVNIHTMDMIREKGLIPTIKEILPVVQDKTDFIFISVDMDVLDQSHAPGCPAIGPGGLYTDELLEAVKYIAQQPNVAGIEIVEVDPTLDFRDMTSRAAAHVLLHALK", "soluble on expression in E. coli": "not soluble"}
{"sequence": "MKLAKLIPKRFFIRSKDRSTVSKSPTAFSFGSASSSSGQDCKNSGGDGGGGSVTPTSILPEVPSPYSYVEILQAFKLIDRDNDGAVSRHDLESLLSRLGPDPLTEEEINVMLKEVDCDGDGTIRLEELASRVVSLDPARDSTELKETFEFFDADRDGLISADELLRVFSTIGDERCTLDDCKRMIADVDEDGDGFVCFTEFSRMMDLQR", "soluble on expression in E. coli": "soluble"}
{"sequence": "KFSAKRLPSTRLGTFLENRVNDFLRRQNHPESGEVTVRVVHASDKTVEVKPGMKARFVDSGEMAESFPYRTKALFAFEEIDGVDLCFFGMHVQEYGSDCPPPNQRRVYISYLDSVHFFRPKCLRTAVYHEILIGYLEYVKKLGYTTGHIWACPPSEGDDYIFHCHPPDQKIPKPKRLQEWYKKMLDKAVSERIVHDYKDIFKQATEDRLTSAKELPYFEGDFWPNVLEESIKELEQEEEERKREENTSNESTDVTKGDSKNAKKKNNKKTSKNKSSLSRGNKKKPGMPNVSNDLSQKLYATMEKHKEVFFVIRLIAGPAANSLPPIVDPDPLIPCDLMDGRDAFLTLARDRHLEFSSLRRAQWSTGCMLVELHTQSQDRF", "soluble on expression in E. coli": "soluble"}
{"sequence": "MEQQFILRLHESIKHVVDLGNSTIDICDDRSVVLTHNNKKYPGIVVRLPCIVESQKTMDSRQHYKVADISTLVVVYPDDSFDFDKEREMYELSGLSPPLKYVKARRFRKKSSKIEYVEEIEKKVNDLLEKDMKARSVEVVAKEEKETSDDLDVLAAEIENKLVDNAEAHKEEVQSRPDEIGEKKEEQPRNEEIERLEKGIEEKRRQMESALNPILQKRFESQLNVLLKELEDVKKGMEME", "soluble on expression in E. coli": "soluble"}
{"sequence": "MTGQAAGPAAGPAAGQATKHAGGRRPGETRTREAILTAARVCFAERGFDATSLRRIAETAGVDQSLVHHFYGTKENLFLQALELPGKIEEAITAAAQGGLDGIGERVVRAHLSVWDDVSSRPALMTMVRSAAIHRAAAARLRETATGILARALGGVITGEDAMLRTSMVATQLVGLAMMRYVAHLEPLASADTDTVARHYGRAVQAIVTDRD", "soluble on expression in E. coli": "soluble"}
{"sequence": "MGSDKIHHHHHHMEWEVFEYRTKGIMAEIEAGRLKIVSSYVDKSFSARVILKGRVGFASASTRDEALSLAEKIARISEDELEDFPNEKPASVKGIYDKRVEEADSELIMEEFERLRSAVEKANIASATIEHAVEEVRITNSFGLDSREKSTSSSMIVEAVFEGGSAYEVCGSRSIELDIEGAAKKAEELAVDSAKAIKIEGGTYDVILQPIAVHQLLSNTLYPSLSAENVEKGRSVIRLGDEFGRITVIDDPTVEGGLMSCGFDDEGVSARKTFLIDNGVVRSYYTDWKHSKKYGVTGNGFRLEESSFPAPMVSNVVLEVDDADDDNCLTIHSLIGSHTANPVSGDFSLECNNAYFGEKAVKGAMIYGNVFELLKKVEGGLGELRQIENTVTKSLRFRSVRVI", "soluble on expression in E. coli": "not soluble"}
{"sequence": "MGSDKIHHHHHHMKTSKKWIAHFEANALHQRINWDLFPAITEAETASVLSSLQAWQLGETSDGAHLIHASTLYASHIGDLDYIDAVKLFIKEEQKHGNNLGRYLDVIDKPRIKKDWGDSLFRKIRYFNTNMEIWTLAVITVESAAQVFYQCLKNATECTLLRQICTDILIDEAYHIDFQTERMTILFNKKSVLSRCLSRIMYPVFFFSTSLLVWSAHKKLFKAGGIDFKKYMNKMKYKYFKTLHRIALVCSRKSTLIHSALH", "soluble on expression in E. coli": "not soluble"}
{"sequence": "SDTFSTKSLALQAQKKVLSKMASKAMVAVFVDNTSSEVLDELYQATKEFTRSRKEAQRVVKNLVKVAVKLAVLLRADQLDSNELAQLQRFRGRVRSLAMTALSFHQVDFTFDRRVLATGLLECRDLLHQAIGPHLTAKSHGRINHIFSHFANGDFLAALYSPAEPYRSHLCRICDGLGRMLDEGGI", "soluble on expression in E. coli": "soluble"}
{"sequence": "GHMGAWLASLKQTLGLLPADRKIRVLMLGLDNAGKTSILYRLHLGDVVTTVPTVGVNLETLQYKNISFEVWDLGGQTGVRPYWRCYFSDTDAVIYVVDSTDRDRMGVAKHELYALLDEDELRKSLLLIFANKQDLPDAASEAEIAEQLGVSSIMNRTWTIVKSSSKTGDGLVEGMDWLVERLREQGLGA", "soluble on expression in E. coli": "soluble"}
{"sequence": "MAGDPMTEQDIYKLLADGERVTLECKKAQNGVPNSLWETYSAFANTNGGILLLGVYENVAEKDSLMRFTITGVEDADKIRKDLWNTINSREKVNVNLLHDEDVQTISVNGKEVIAINVPRADYNLRPVYINNNLMRGTYRRNHEGDYHCTEQMIKMMVRDAYEDGNDRMFLEYYTMDDIDIPTLEGYRVMFKTNNPEHIWNSLDHKEFLMQLGGYVVNRKDGTEGLTIAGLLMFGKGLPVRERFDYLRMDYIDKSNLIGDQRYSDRLTYDGTWENNLFNFIRMVVPRLTRDIPRPFQMDGIIRKDDTPQHKAVREAFTNMIIHADLMLNGLLRVEKYDDRFVLSNPGLLKLPVEQIYAGGESKARNQRMQHMLRMIGYGENLGSGFPLILSAWNEKHWLKPELVEQPELMQVKLILHIENRVYVTKDVTKDVTKELTERQQIILEFMQADGTITISEMSQKTNVTERTIKRDIESLTEKGILSREGGRKEGRWVIRKILEHHHHHH", "soluble on expression in E. coli": "soluble"}
{"sequence": "VKKNVSGEPYVEGSGSNDVRTGAPIDEIDRILLDQLSRDARTPNNALAALAGIAPSTCLGRVRSLIDRGVIRGFHADIDPATLGRDLQAMIAVRVQANARQHLGQLAEQLATLDEVLNVYFIAGADDYLIHVATASSEELRRFVLDHLSAHPAVASTETILIFEHVRPRHRAPRTEQSSGR", "soluble on expression in E. coli": "soluble"}
{"sequence": "MKIEFFHDVICSFCFPMSDRMHEIQQEFPEIELIHRSFALGWSANDFETMFGSRAAVKEEVLTHWVHANQNDSKHRFNIEGMRKQRFDFPTSKNVLLAAKAAGYIGNQDTYWLLFDKLQEGLFVRSLNIEEPEVIEKLVKETTIDFALWKEAVASEAVWTAVQEDFALASAYGLQGVPALIINQKYLINGAVPKQQISQTIQKILAEEKQQQPLVSLTPSSEESASCEFKEGTWTCH", "soluble on expression in E. coli": "not soluble"}
{"sequence": "MGSDKIHHHHHHMQITKRNVELRVDDSLMRVYVASPKPVGVYPGIVFYSDIYQLGSPIIRLANYLAGFGYVVAAPEIFHRLEPIGLVIEPDDLGRMRGNDNARRTAIAEYDADSRAVIDFLKAETTVNANKIGTVGFCIGGHLAFRAAFENEVKASACCYPTGIPSGKLGKGVADTIHRVKEIKGEMLLVLGTLDPHIPESDRQILIKAIEDAKVPHKVVLYEAEHTFMRDDGYRYDSAATTFAWAEIVEFLGRVFAD", "soluble on expression in E. coli": "not soluble"}
{"sequence": "MKFSESVPLYKQPLSIPAEQLPQPDLNRNLPLSKYFLMMKTPEIGFQKAEVRDVLLRKVVLNEIEKIPAIWNCKNTYNANKLYPEVAVQVYRRTGTLLHTKMVQMVFKTAKDSLRNRLRDAISRKGLNEVDTEAHLLEWEYYPFVRFYREVSEGWEDRMRKTKQLEKREPAGGVGIVGDDENSMDVEEEPYENPDIIWDDVADPESPTTSMSSTLTSTQGTFTDYHPEEPYHNPEPPLIHPTLEYAAMKTASLQRNQQNKHVMEVRHGSETRTVVVMPTEPPRQQLNAPDFAEEMLQVTYQATRIAREQPERVKLLRKALFDTVLAFDQKEYNCVADLYRDLAEKSSR", "soluble on expression in E. coli": "not soluble"}
{"sequence": "TTFTTRDGTQIYYKDWGSGQPIVFSHGWPLNADSWESQMIFLAAQGYRVIAHDRRGHGRSSQPWSGNDMDTYADDLAQLIEHLDLRDAVLFGFSTGGGEVARYIGRHGTARVAKAGLISAVPPLMLKTEANPGGLPMEVFDGIRQASLADRSQLYKDLASGPFFGFNQPGAKSSAGMVDWFWLQGMAAGHKNAYDCIKAFSETDFTEDLKKIDVPTLVVHGDADQVVPIEASGIASAALVKGSTLKIYSGAPHGLTDTHKDQLNADLLAFIKG", "soluble on expression in E. coli": "soluble"}
{"sequence": "GPGSMAKRDKRRTSLVQQNFDSLKRFYAISPFAAAERATLPPVYSGVYSRRAAMNSYHVVGSSRDQIVLEAMRTFTPSVCTKEVMDLYLEVAALVSLYFDTKEQLLALPDV", "soluble on expression in E. coli": "not soluble"}
{"sequence": "LLERLPVPVLAVQHDGVVVYSNRAFERMLDYPPNEVGNHLIGDLMQTASPGPSAVAELRESAGKLVALTHRDGSTVRAFVSESVLERHDDPVTLVCFHDVT", "soluble on expression in E. coli": "not soluble"}
{"sequence": "GSQSSERVVIGSKPFNEQYILANMIAILLEENGYKAEVKEGLGGTLVNYEALKRNDIQLYVEYTGTAYNVILRKQPPELWDQQYIFDEVKKGLLEADGVVVAAKLGFRDDYALAVRADWAEENGVEKISDLAEFADQLVFGSDPEFASRPDGLPQIKKVYGFEFKEVKQMEPTLMYEAIKNKQVDVIPAYTTDSRVDLFNLKILEDDKGALPPYDAIIIVNGNTAKDEKLISVLKLLEDRIDTDTMRALNYQYDVEKKDAREIAMSFLKEQGLVK", "soluble on expression in E. coli": "soluble"}
{"sequence": "TNTDQSIKFTSKSNSINKNNQNKELALLRDNLMNEAKVDEPLSFEKRFENFKNKYSDIHSLNNSVFSLHDVYDLLGGFKQSLTTFFDEVIAQQQKIKDADKIFPSTKDNPPKEENPNVLDTLANYQGAGFFPSLGKNGFNLPEAVFQNFTDFRINDYKIKNFNVDLVSENDIIKHDKVRYAFEV", "soluble on expression in E. coli": "not soluble"}
{"sequence": "GSVPVILEVAGIGKYAISIGGERQEGLTEEMVTQLSRQEFDKDNNTLFLVGGAKEVPYEEVIKALNLLHLAGIK", "soluble on expression in E. coli": "soluble"}
{"sequence": "DRETAPTIKINQITLRYSANQEPVLSGVSADIESGDCVAVIGPNACGKTSLLLSLLGVVEPQAGFIMVNNKNLKQYDPETFREYAGYCPAEPDLFPGTLADNLRIAKPDATDEELIAALKHAGGESLFIALNSNLNIMLENNASNMLSAVEGSYINLARAFLKKSNFIILDEPLANRNPQARKAFSNTILALKGKATIVFSSHDPELIKLADKVIVLDKGSVVYAGPIPEKNSQEMESSNHE", "soluble on expression in E. coli": "not soluble"}
{"sequence": "MGHHHHHHSHMEGTQETYTVAHEENVRFVSEAWQQVQQQLDGGPAGEGGPRPVQYVERTPNPRLQNFVPIDLDEWWGAAVPGENHQLFLVAAGRGRCYTADLSPGEKHGALPTHCAWLGAGHT", "soluble on expression in E. coli": "not soluble"}
{"sequence": "MQEPQARIAALLRDADDILITTHANPDGDAIGSLGAMGHVLATLGKRFCLCNVSGVPSHLSWVPLPGQVYTSFDELPFQPRLAIVLDCGDEKRPGEALRAPLADLPSINIDHHQGNPLFGTVDNWVEPQRAATGEMVAEIALALGQPLAGALGECLYLALVSDTGSFSFGNTSARVLSLAAEIVGNGLDVAALTERHDNQWSFARMQLWGRLMQEMRLAFDGTVAISVIPDALIESCGARRADLEGWASQMRKVRGVRVSVMVRGNGPEGSKVSLRSTGSDDVRAVAARFGGGGHRNAAGVEMPLPPEEASRQVVAALGEQLGLDGDGASLYVLEHHHHHH", "soluble on expression in E. coli": "soluble"}
{"sequence": "MAHHHHHHMAPSELHKLSYWEEVYQGEKENYEEANIQPEEWFEENCDKIINWMSNHFSEEEKKEQVAILDVGCGNGLFLHKLHQRGFGNLCGFDFSASAIELAKKLFVGCGGEGEEDSRINRGEEPTDVYVQVLDIYNIEDEIKENSKLKKKYKLINDKGTFDIFFMNDKAQEYFKHVSFFFQVDTIFCLTSCNACKEELLSIVNHFNETNGKFQLTLFDEIRYESITFGGVKGQIITTLIFACS", "soluble on expression in E. coli": "soluble"}
{"sequence": "MSLRPTPAPSFSGVTVDGKPFSSASLKGKAYIVNFFATWCPPCRSEIPDMVQVQKTWASRGFTFVGIAVNEQLPNVKNYMKTQGIIYPVMMATPELIRAFNGYIDGGITGIPTSFVIDASGNVSGVIVGPRSKADFDRIVKMALGAKAATKKGIITITTDPNSSSVDKLAAALEHHHHHH", "soluble on expression in E. coli": "soluble"}
